Reference: the DeepSol protein solubility set

Assay: soluble on expression in E. coli; label from the status in PepcDB or PDB records

Sequence	soluble on expression in E. coli
FTQMVIRLHIYHLVSTVSPHNVNIDASIAARGLSGEGYRGHYFWDEIYIMPFFIQHLPEVARALLMFRYHRLDAAREYARDNGYHGAMYPWQTADDGREETPTIHYNPKSGAWDPDLSCRQRHVSIAVFYNAWRYVHDTGDTEFLNSYGAEMMFEIARFWASIATFSPDDGRYHIEGVMGPDEFHEELPGSGKPGLKDNSYTNIMTAWLLEKAIEISQRLDPAVMDGLMEKIGIGHDEFMKWRDISGKMNVLIDQNGILEQFDGYMGLKELDWEHYKLKYGNIHRMDRILKAENDSPDHYKVAKQADVLMTFYTLSPAEVCAILENLGYHVADPLRFVRDNYAFYEPRTSHGSTLSKVVHSIISSYLPNGHEMAWNWFIEALRSDIHDTQGGTTPEGLHCGVMAGTIDTVT	not soluble
AHHHHHHGSISREQILEVLEKYDKEKITIGVIGSHSALDITDGAKEEGFPTLVVAQRGRHKTYEKYFKLRKTRDGLVKGFIDEVIVLEKFSQIIDIQEELRKRNVIFIPNRSFVVYTGIDRVENEFLVPMFGTRSLLRTEERSEEKSYYWLLEKAKLPYPEEVKPEEIDEVGLVIVKLPHAKKRLERGFFTAASYKEFKEKSEKLIRLGVITREDLEKARIERYIIGPVFNFDFFYSPIDEEIELLGIDWRFETSLDGHVRLPAAQQLTLPEWQFEPEYTVCGHASSTLRESLLEKVFDMAEKYVEATKKYYPPGIIGPFTLQTAVDKDLNFYIYDVAPRTGGGTNIHMAMGHPYGNSLWRKPMSTGRRIALEIKRAIELDELEKVVT	not soluble
MFGGGSSGPVDTTLYTTLNVRPDASQADIKKSYFKLAKEYHPDKNPDHGDKFKEISFAYEVLSSPEKRRLYDARGLEGVQGGGAGGGGGGFPGGLFSHFFGGAGGDDDDDDDDMGGHPFGGLFGGMGGMGRGGPRRRKFQDTVHPLNVTLEELYVGKTSKLKLSKKALCKTCEGSGGKKGEKYKCDACRGRGVKTIVQQIGPGMLQQMQVHCDACKGSGGKVPAGDKCKGCHGEKYENVSKILEVHVLPGMKHNDKITFKGDGDQSDPDGEPGDVVIVIQQKDHDIFKRDGDDLHMTKKLSLNEALCGYNFLIKHLDGHPLVLSSKQGDVIKPGVIRGVLGKGMPNKKYPELKGNLFVEFEVEFPKEHFLDDEKAYAVLKSCFPTSKVVNVTPAAAEVSLMEYDEKKYSRGRGGDAYNEDSDEEQHGGHHGQGVRCQHQ	not soluble
MGSDKIHHHHHHMRADIIKVNHLLEIEMENNIGKEYLPSRLEEISDEHWHISMPMRKGMYITMRVGQKIRIVLRYRNTMFAATTVIAARRRGHIPVLIVSKPKDLIAINQKRTYVRISVAIPVAFRLLLADGEKGELLQGVTGDISAGGMLLLSPQDMEKDQKIEVEIKLPDSDSIFCQAHVVRVLGKASEEGSNNKYAIEYDDINEGQRDRIFRFIFDKQREWLRKGVTE	not soluble
MSSTAVQPPPPVPPPPPSAVPSAGKGIHSKLYNGMIGAADKFVPAKLRPLWMHPAGPKTIFFWAPVFKWGLVAAGLSDLARPADTISVSGCAALAATGIIWSRYSLVIIPKNYSLFAVNLFVGITQVVQLARAYHYHQSQEKLKQEQQQPAVQNLEHHHHHH	not soluble
MNEDNSQNSEGPSRKSFFERLSQLFQGEPKDRQELVDVIRDSEVNDLIDHDTRDMLEGVMEIAEMRVRDIMIPRSQMVTIDRTHNLDALVAIMTDAQHSRYPVISEDKDHVEGILLAKDLLKYLGSNCAPFNIQEVIRPAVVVPESKRVDRLLKEFREERYHMAIVVDEFGGVSGLVTIEDILEEIVGDIEDEFDDEEQKDIRQLSKHTFSVKALTTIEDFNHTFGTKFSDEEVDTVGGLVMTAFGHLPARGEVVDIAGYNFKVTAADSRRVVALQVTVPDLEALSHVAEE	not soluble
MILIIYAHPYPHHSHANKRMLEQAGTLENVEIRSLYHLYPDFNIDVAAEQEALSRASLIVWQHPMQWYSVPPLLKLWMDKVLTHGWAYGHGGTALHGKHLLWAVTTGGGENHFAIGSHPGFDVLSQPLQATALYCGLKWLSPFAMHCTFICDDDTLQAQARQYKQRLLAWQEVNHG	not soluble
MYYAIPTVVVSECLGFSACRYNGDIIRNSFVSRLGEFARLVPVCPEVAIGLGVPRETVRLVKRGEERRLVQSSTNRDWTREMNEFATSFFGQVGEVDGFILKGRSPTCGIKDVRVYDDEESGMVVEKGVGLFAEHVFRRFPNAAIEEEGRLTNAAIREHFLTKVFALALFREVKAKRSMKALVQFHSEHKYLFMAYSQTWLKQLGRLVANRDRLPVEQVLEAYGQGLHALFARAPQRRSHVNVCQHLMGYFKKEMSAKEKQYVLELLAQYRAQQLPLSSVASVLKSWAIREENDYLLQQRYFAPYPPALLDVRDSGKGREKAV	not soluble
MAENFQLPYLSLQNEKVDMVFDLFNKTIRNGEKVTFAFSGGKDSTTLAILFYEWLKIRHDIECTITLLHNDTSSEIDPMENWARNFMTSYKTEIEDITEGRVKINIDIRTPKVIDTFYWRMLIRGYPAPSFNFRWCVHLLKEKPANLDSIEETMFTGLREAESSERRILMRKKYGNSCSASPGGCMAYYYSTEGKGNKVAPMRDWTDGDVWSFLTLYRNTGGINISPIFMLYPNPKVRYGCWHCTLASVQWGLQSLGGGLEYFEAVRILYRKFSDLPYLRIKKNTGYSKLGPLNAAGRALMLKSIALAEDLSNVKLYGLDINLLEGKSIRDILFNLDPKEATALIKKYDPNIPRFRYIPIDKIRNIQKYKELALRALIDVKRNCANDKAYILLDTKLENPLITLLNRIEDLLS	not soluble
MNIEALERLRGWMRAKGFSRFYVVRPENFAWLVGGANTLGMGESVAYLEVGEEVVLHTSAIEHPRMVEEEAPGLPARVHPWYAFPPPPGPNDLEHDLTPLRLVLSREAQGAFTHLGREAAMAVGEVVRSARPEWTEYALAGALAEALWGRGLRPLLLLVAVDERLFRYRHPLPKGKPLGRAFMAVVCAERRGLVANLTRMASFGHGEVEARYRKVLEVEAAALSASRPGATLGEVFAALQGAYARVGFPRAWGEHHQGGVGGYRSREVVATPGHPLVLEAGMVLAWNPSLSGAKVEDTFLLTEGGLLNLTEDPFWPAVEVEGRRRPDLWRGGG	soluble
MDGVHDLAGVQGFGKVPHTVNADIGPTFHAEWEHLPYSLMFAGVAELGAFSVDEVRYVVERMEPRHYMMTPFYERYVIGVATLMVEKGILTQDELESLAGGPFPLSRPSESEGRPAPVETTTFEVGQRVRVRDEYVPGHIRMPAYCRGRVGTISHRTTEKWPFPDAIGHGRNDAGEEPTYHVKFAAEELFGSDTDGGSVVVDLFEGYLEPAA	soluble
MAHHHHHHMGFFKKNKRQSFNRNYEGEVQCNNIILGGTFYKHCENDLLLKNELENLVPYFNGRIFLENKEEIGKVDEILGPINEFYFSVKLKEGIRAKSFSSDTHFFIDKSQTLPLSRFLPQEKNSQSLVKKKKKKSNRDKKKNSFNQNNKKPNNYNFKGNNNRNDHNNRNDHNNRNDHNNRNDHNNRNDRNNRNNKNSFRNRSNSSRKFNNQRGRF	not soluble
MSGRLIGKVALVSGGARGMGASHVRAMVAEGAKVVFGDILDEEGKAVAAELADAARYVHLDVTQPAQWTAAVDTAVTAFGGLHVLVNNAGILNIGTIEDYALTEWQRILDVNLTGVFLGIRAVVKPMKEAGRGSIINISSIEGLAGTVACHGYTATKFAVRGLTKSTALELGPSGIRVNSIHPGLVKTPMTDWVPEDIFQTALGRAAEPVEVSNLVVYLASDESSYSTGAEFVVDGGTVAGLAHNDFGAVEVSSQPEWVT	not soluble
MTEHLKSNTMVLPLKKGAQKMTTITLKVSEADKTFMKAMAKFEGVSLSELIRTKTLEALEDEYDARVADLAYQEYLEDLEKGVEPITWEEMMHDLGLKDE	not soluble
MKKVSIIIPFKGQTEAELMLPLSSIYNQIGVDLSQLDIHLVNDGGKTIDLSKFDVLADRLEIHYHEIPNGGPGVARQYGIDNSISEYIMFIDADDVLYYVGALWPFYNASNQGHQMIRASYWEQIAGNPYTYTVHGNGDRKAAYGKWYKRSYIEMLGLRFMPDLPIYEDTYFVGLACELATDTCFLEEKVYMWLANPNSITRTVENKFNYQAHIYARENRYWFEMIRKWKPECLEHHHHHH	soluble
MSLDLGTTKYIIYAELIADGYVEKHDVIGAIFGQTEGLLGDELDLRELQKTGRVGRIDVELTNINGKSIAKITVPSSLDRIETSILAATLETIDRVGPCVATVKVIDIEDIRKKKREYIVERAKEILKQLMSNIDVNTIIEEVKESVRMGEIIEYGPERLPAGPAVDEGHHHHHH	soluble
MDEAYKMRCDWYHHGELVSGGESESKFSQLNDEVVELYQAAEYLDEEFAGMVHLGEIVERDDKKEDEFLAKLADAETPLYPSCFNHSKLSAIMSLFTLKTKNGWSDKSHNDLLETLPEMLLEDNVLHSSLYEVKKFLKSFDMG	not soluble
MRGYLGKAQQNALINEAQSYPLTRPQIQVFGRYHAIPRQQVWYGDLGCDYLYSGLFIRALPWPKYLQKLRDKLQRDFELGSNGVLVNRYADGQDCMGAHSDDEPEIAHGSDIASISLGATRDFVIKHKHSKQKCCISLHSGDLLIMHWPMQRDWLHSVPKRLKVTEPRWNYTFRQLVVNYHGLEHHHHHH	not soluble
MSLSTLQAELASAKTEYEAKELEIRNLFSEKNTQERRLQTLVAQVAAKRKELSNALSQSSAETLTSELQSLESQYQACQTLINNISNYLTVKAGLDKKNASELVERAQKNLLNFIYNSIKSELKVLTDEQVELMKDFVVIEKLIRSELSDSVRQSYFLGCVFDELYGQLKGSDFTSHKEKMLKKYDAESSIG	soluble
YPMVNNYLEMGHGLYVVEIHVKSNLHDTPLSKLISRGSYNIQPILVKREEAVYTNINDEFVLNEFDTLLLCGSRAELKYVAPRLV	not soluble
MFRISQLLKTLHDDMAELKPVKASRKMKGPVVIWNLIRRCNLQCKHCYSTSLDIDFKDELSTEQVKTTIDDLKVAHVPVLILSGGEPLLRPDIYEITEYAKQKGFYLALSTNGTLINEDNIEAIKAAEYQYVGISIDGLEEFHDEFRRQKGSFKTSMHAIKLCKDAGIKVGMRLCLTRENFKDLPAMLNLMEENSVDKFYLSHLNYSGRGKRTAENDAMFKMTKDAMELLYERAWTHINQGIETDFVTGNNDADGPFLLQWASKQFAEEYPEAIANLKQRLINWGGNSSGINVANIDNTGTIHPDTYWWNHPIGNVTTEKFSDVWRDTQDPLMLGFRQTPRPVKGRCASCEHLAICGGNTRTRAFAQSGDAWAEDPGCYLDDDEIGFIPSPSKFADELTNTENPIQFVEV	not soluble
LLPGAPDCRVYGWIYSSPTPGRAWVLLVHGLGGDHTFFEEPLGGYRVAYDLALRGFKVLAIDAAGHGESCIPGGESWRDKALTLEPGEFFLYHVYLSGVRAVEAALELGAEPG	not soluble
MGHHHHHHSHMANCEGTDGDGTGCNGWFFVQAIVDKQTGDTVSEDEDENATDTGSDMVDFIDDATDICIQAERETAQVLLNMQQAQRDAQTVRALKRKYTDSIESSPLAKSPLQELSIWKWKLTRR	not soluble
MGSDKIHHHHHHMPRLIVLNDNTPSRGLINDWGWSILIEGRERFLFDADTNPLVLAHNSKVLNVNLRNLDFAVLSHWHYDHYGGFEYIAELNPGIKFYAPPQGLALAMRWGFQPIAINFGGKIEEEVYTSGVIDGIEQAIGLETSSGLVVIVGCSHPGVDRMVEEVLKVSGYEKAYLVIGGFHSPPIHRLRNLARLSELIAPAHCSGDVAKAFIKRNYKEKYVDVKTGTILEI	not soluble
MFSAKKLSPADKLKNISSMLEEIVEDTTVPRNIRAAADNAKNALHNEEQELIVRSATAIQYLDDISEDPNMPIHTRTQIWGIVSELETIKN	not soluble
